Tests used:
[1] = Beta-glucuronidase activity of fusion proteins at pH 7.0; type: biochemical; details: pH 7.0, 0.5 mM substrate, 30 minutes, 37° C.
Protocol: Next, the beta-glucuronidase activity of the fusion proteins was measured by adding 0.5 mM 4-methylumbelliferyl β-D-glucuronide in a beta-glucuronidase reaction buffer (50 mM Bis-Tris, 50 mM triethanol amine, 100 mM acetic acid, 100 ng/ml bovine serum albumin, pH 7.0) for 30 minutes at 37° C. The reaction was terminated by adding an equal volume of stop buffer (1 M glycine, 0.5 M sodium bicarbonate, pH 11). The fluorescence of 4-MU was measured at excitation/emission wavelengths of 355/460 nm in a Gemini EM microplate spectrofluorometer (Molecular Device, Sunnyvale, Calif.). […] See also FIG. 9.

[2] = system: EJ human bladder cancer cells; assay: Prodrug activation of SN-38G by enzyme, 3H-thymidine incorporation; type: cell-based; details: 100 nM SN-38G
Protocol: (§1) The prodrug activation activity of the human beta-glucuronidase variants was determined as follows. EJ human bladder cancer cells were incubated with graded concentrations (see FIGS. 3B and 3C) of human β-glucuronidase variants in RPMI (pH 6.8) containing either 10 μM HAMG or 100 nM SN-38G for 24 hours. The cells were further incubated for 24 hours in fresh medium before incorporation of ^3H-thymidine into cellular DNA was measured following the procedure described below.
(§2) Purified recombinant human beta-glucuronidase and its variants with defined concentrations were mixed with 10 μM HAMG or 100 nM SN-38G and the mixture was added to 5000 EJ human bladder cancer cells in 200 μl complete medium at pH 6.8 for 24 h. The cells were washed and incubated in fresh medium for 24 h and then pulsed for 16 h with ^3H-thymidine (1 μCi/well). The cells were harvested and the radioactivity was measured in a TopCount Microplate Scintillation Counter (Packard, Meriden, Conn.). Results are expressed as percent inhibition of ^3H-thymidine incorporation into cellular DNA in comparison to untreated cells.

[3] = system: EJ human bladder cancer cells; assay: Prodrug activation of HAMG by enzyme, 3H-thymidine incorporation; type: cell-based; details: 10 μM HAMG
Protocol: as §1, §2

[4] = Relative activity of membrane-tethered human β-glucuronidase variants on 3T3 cells by flow cytometry (FL4/FL1); type: cell-based; details: membrane-tethered enzyme, pH 7.0, substrate ELF97 β-D-glucuronide
[5] = Kinetic values (Km, kcat) of soluble recombinant human β-glucuronidase and variants; type: biochemical
[6] = Enzymatic activity of mouse versus human β-glucuronidase at pH 7.0; type: biochemical
Description: Each of the cDNAs encoding human and mouse beta-glucuronidases (Genbank accession no. NM_000181, 03-SEP-2009 and Genbank accession no. J02836.1, 29-APR-1996) was fused to the juxtamembrane Ig-like extracellular domain, transmembrane domain and cytoplasmic tail of murine B7-1. See Chen et al., Cancer Gene Ther 14:187-200 (2007).

Molecule	Enzymatic activity compared with wild-type hβG [1]	Fold improvement in prodrug activation over wild type (SN-38G) ([2]; pH 6.8)	EC50 of enzyme for killing of EJ cells with SN-38G ([2]; pH 6.8, 24 h)	Fold more effective than wild type (HAMG activation) ([3]; pH 6.8)	EC50 of enzyme for killing of EJ cells with HAMG ([3]; pH 6.8, 24 h)	Relative activity (FL4/FL1 normalized to wild-type human β-glucuronidase) [4]	Km ([5]; pH 4.5, 37° C.)	kcat ([5]; pH 4.5, 37° C.)	Km ([5]; pH 7.0, 37° C.)	kcat ([5]; pH 7.0, 37° C.)	kcat/Km at pH 7.0, fold greater than kcat/Km of wild type at pH 4.5 ([5]; variant at pH 7.0 vs wild type at pH 4.5)	Enzymatic activity compared with human β-glucuronidase [6]
S2: human beta-glucuronidase variant V159M, T545S, E595L, T599L, SEQ ID NO: 8 (protein, Laboratory generated variant, S2, based upon the human beta-glucuronidase) AAQPALQGGMLYPQESPSRECKELDGLWSFRADFSDNRRRGFEEQWYRRPLWESGPTVDMPVPSSFNDISQDWRLRHFVGWVWYEREVILPERWTQDLRTRVVLRIGSAHSYAIVWVNGVDTLEHEGGYLPFEADISNLVQMGPLPSRLRITIAINNTLTPTTLPPGTIQYLTDTSKYPKGYFVQNTYFDFFNYAGLQRSVLLYTTPTTYIDDITVTTSVEQDSGLVNYQISVKGSNLFKLEVRLLDAENKVVANGTGTQGQLKVPGVSLWWPYLMHERPAYLYSLEVQLTAQTSLGPVSDFYTLPVGIRTVAVTKSQFLINGKPFYFHGVNKHEDADIRGKGFDWPLLVKDFNLLRWLGANAFRTSHYPYAEEVMQMCDRYGIVVIDECPGVGLALPQFFNNVSLHHHMQVMEEVVRRDKNHPAVVMWSVANEPASHLESAGYYLKMVIAHTKSLDPSRPVTFVSNSNYAADKGAPYVDVICLNSYYSWYHDYGHLELIQLQLATQFENWYKKYQKPIIQSEYGAESIAGFHQDPPLMFTEEYQKSLLEQYHLGLDQKRRKYVVGELIWNFADFMTLQSPLRVLGNKKGIFTRQRQPKSAAFLLRERYWKIANETRYPHSVAKSQCLENSPFTSVD	significantly greater	11 fold	0.0084 µg/mL	9 fold	2.7 µg/mL	65	8.1 ± 0.8 µM	107 ± 7 s⁻¹	35 ± 3 µM	42 ± 4 s⁻¹	about 2 fold	–
Mouse β-glucuronidase: mouse beta-glucuronidase, Genbank accession no. J02836.1 (protein, left off: small tags and cut ends) LKGGMLFPKESPSRELKALDGLWHFRADLSNNRLQGFEQQWYRQPLRESGPVLDMPVPSSFNDITQEAALRDFIGWVWYEREAILPRRWTQDTDMRVVLRINSAHYYAVVWVNGIHVVEHEGGHLPFEADISKLVQSGPLTTCRITIAINNTLTPHTLPPGTIVYKTDTSMYPKGYFVQDTSFDFFNYAGLHRSVVLYTTPTTYIDDITVITNVEQDIGLVTYWISVQGSEHFQLEVQLLDEGGKVVAHGTGNQGQLQVPSANLWWPYLMHEHPAYMYSLEVKVTTTESVTDYYTLPIGIRTVAVTKSKFLINGKPFYFQGVNKHEDSDIRGKGFDWPLLVKDFNLLRWLGANSFRTSHYPYSEEVLQLCDRYGIVVIDECPGVGIVLPQSFGNESLRHHLEVMEELVRRDKNHPAVVMWSVANEPSSALKPAAYYFKTLITHTKALDLTRPVTFVSNAKYDADLGAPYVDVICVNSYFSWYHDYGHLEVIQPQLNSQFENWYKTHQKPIIQSEYGADAIPGIHEDPPRMFSEEYQKAVLENYHSVLDQKRKEYVVGELIWNFADFMTNQSPLRVIGNKKGIFTRQRQPKTSAFILRERYWRIANETGGHGSGPRTQCFGSRPFTFKADFSTPNITESGNPSADTKRITCFASGGFPKPRFSWLENGRELPGINTTISQDPESELYTISSQLDFNTTRNHTIKCLIKYGDAHVSEDFTWEKPPEDPPDSKNTLVLFGAGFGAVITVVVIVVIIKCFCKHRSCFRRNEASRETNNSLTFGPEEALAEQTVFL	–	–	–	–	–	–	–	–	–	–	–	about three-fold greater

Reference: US8491891B2, “Human beta-glucuronidase mutants with elevated enzymatic activity under physiological conditions and method for identifying such” (Academia Sinica, priority 2008, dated 2013)
